Measured values: article PMC8479045, “Assembly defects of human tRNA splicing endonuclease contribute to impaired pre-tRNA processing in pontocerebellar hypoplasia” (Nature Communications, 2021)
Values joined by “and” are separate entries in the source; they are usually repeats but may differ in a detail not shown here. Identical values can stand only once.

How the values were obtained:
[1] = system: TSEN2 H377A (inactive);TSEN34 H255A (inactive);TSEN15;TSEN54 (Homo sapiens;Homo sapiens;Homo sapiens;Homo sapiens); test: fluorescence anisotropy; conditions: FA: 50 mM HEPES-NaOH pH 7.4, 100 mM NaCl, 22 °C, 70 nM Cy5-RNA; EMSA: same buffer + 1 mM DTT, 4% glycerol, on ice, 10 nM RNA; pull-down: 50 mM HEPES-NaOH pH …
[2] = system: TSEN2 H377A (inactive);TSEN34 H255A (inactive);TSEN15;TSEN54 (Homo sapiens;Homo sapiens;Homo sapiens;Homo sapiens); test: competition (fluorescence anisotropy); conditions: competitor of 3'-Cy5 pre-tRNA-Phe; FA: 50 mM HEPES-NaOH pH 7.4, 100 mM NaCl, 22 °C, 70 nM Cy5-RNA; EMSA: same buffer + 1 mM DTT, 4% glycerol, on ice, 10 nM RNA; pull-down: 50 mM HEPES-NaOH pH …
[3] = target: the molecule itself; test: SEC-MALS; 330 µg TSEN15–34 complex at 1.65 mg/ml, Superdex 200 Increase, 25 mM HEPES-NaOH pH 7.5, 250 mM NaCl; heterodimer to dimer of heterodimers at high protein concentration
[4] = target: T1, heterotetrameric tRNA splicing endonuclease TSEN (TSEN2–15–34–54) (human, UniProt Q8NCE0 1-465; Q8WW01 1-171; Q9BSV6 1-310; Q7Z6J9 1-526, high degree of phosphorylation (sites not given)); test: native MS; purified wt TSEN (1.09 mg/ml) and wt TSEN/CLP1 (1.88 mg/ml) from insect cells, exchanged into 200 mM ammonium acetate pH 7.5; Q-ToF modified for high-mass complexes; conditions: both partners purified
T1 construct: human TSEN2, open reading frame, UniProtKB Q8NCE0; human TSEN15, open reading frame, UniProtKB Q8WW01; human TSEN34, open reading frame, UniProtKB Q9BSV6; human TSEN54, open reading frame, UniProtKB Q7Z6J9; His tags were removed with TEV protease; also called tetrameric TSEN; TSEN2–15–34–54 heterotetramer; source: Sf21 insect cells (baculovirus), co-expressed (with CLP1), purified (Ni-NTA, …)
T1 sequence (looked up) 1: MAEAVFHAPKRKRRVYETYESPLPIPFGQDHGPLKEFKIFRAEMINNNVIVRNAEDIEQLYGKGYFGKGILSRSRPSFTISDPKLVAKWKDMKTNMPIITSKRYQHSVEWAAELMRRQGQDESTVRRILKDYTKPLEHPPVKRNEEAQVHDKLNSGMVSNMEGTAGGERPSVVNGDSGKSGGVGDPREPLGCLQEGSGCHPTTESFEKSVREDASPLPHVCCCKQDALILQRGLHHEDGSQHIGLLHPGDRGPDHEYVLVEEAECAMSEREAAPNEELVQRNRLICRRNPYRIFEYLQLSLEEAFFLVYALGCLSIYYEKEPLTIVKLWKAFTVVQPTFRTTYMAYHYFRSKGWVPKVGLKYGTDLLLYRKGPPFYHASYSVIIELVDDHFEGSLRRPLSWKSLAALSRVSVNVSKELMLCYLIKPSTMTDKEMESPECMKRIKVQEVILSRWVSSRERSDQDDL
T1 sequence (looked up) 2: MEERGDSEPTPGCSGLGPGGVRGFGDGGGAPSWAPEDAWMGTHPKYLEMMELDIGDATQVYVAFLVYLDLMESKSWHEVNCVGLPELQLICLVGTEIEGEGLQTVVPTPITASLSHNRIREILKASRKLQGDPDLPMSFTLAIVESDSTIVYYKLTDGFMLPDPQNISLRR
T1 sequence (looked up) 3: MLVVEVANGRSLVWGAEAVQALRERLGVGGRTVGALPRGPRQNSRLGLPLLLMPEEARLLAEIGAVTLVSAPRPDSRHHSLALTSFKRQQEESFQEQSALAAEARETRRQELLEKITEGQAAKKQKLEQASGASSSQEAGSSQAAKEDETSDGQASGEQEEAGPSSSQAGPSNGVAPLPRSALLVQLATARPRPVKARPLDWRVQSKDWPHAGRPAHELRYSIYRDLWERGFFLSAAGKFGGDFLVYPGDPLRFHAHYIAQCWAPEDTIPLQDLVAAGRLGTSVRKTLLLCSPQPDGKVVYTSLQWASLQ
T1 sequence (looked up) 4: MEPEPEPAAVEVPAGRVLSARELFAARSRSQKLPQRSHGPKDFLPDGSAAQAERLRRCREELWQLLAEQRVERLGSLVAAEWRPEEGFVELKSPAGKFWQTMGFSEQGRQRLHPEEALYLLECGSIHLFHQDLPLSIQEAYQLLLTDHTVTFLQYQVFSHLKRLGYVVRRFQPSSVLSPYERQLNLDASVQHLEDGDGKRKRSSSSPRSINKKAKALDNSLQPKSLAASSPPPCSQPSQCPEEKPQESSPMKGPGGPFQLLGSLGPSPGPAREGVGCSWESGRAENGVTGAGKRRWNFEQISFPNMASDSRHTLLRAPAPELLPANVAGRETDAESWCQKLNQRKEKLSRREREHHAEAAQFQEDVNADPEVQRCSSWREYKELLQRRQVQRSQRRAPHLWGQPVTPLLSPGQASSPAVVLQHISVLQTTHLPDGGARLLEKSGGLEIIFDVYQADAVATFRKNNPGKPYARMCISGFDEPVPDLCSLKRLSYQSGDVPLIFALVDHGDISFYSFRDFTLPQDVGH

For S.c. mature tRNA-Phe(GAA), 3'-Cy5, which Kd [1] is on record?
Its Kd is 149 nM.

S.c. pre-tRNA-Phe(GAA), 3'-Cy5 was tested. Which Kd [1] did it give?
Its Kd is 173 nM.

How did the Ki [2] turn out when S.c. pre-tRNA-Phe(GAA), unlabeled was run?
Its Ki is 197 nM.

B1: truncated TSEN15–34 complex (TSEN15 residues 23–170 and TSEN34 residues 208–310) (complex, human)
chain 1: GFGDGGGAPSWAPEDAWMGTHPKYLEMMELDIGDATQVYVAFLVYLDLMESKSWHEVNCVGLPELQLICLVGTEIEGEGLQTVVPTPITASLSHNRIREILKASRKLQGDPDLPMSFTLAIVESDSTIVYYKLTDGFMLPDPQNISLR
chain 2: DWPHAGRPAHELRYSIYRDLWERGFFLSAAGKFGGDFLVYPGDPLRFHAHYIAQCWAPEDTIPLQDLVAAGRLGTSVRKTLLLCSPQPDGKVVYTSLQWASLQ
notes: human TSEN15, UniProtKB Q8WW01, residues 23–170; The SEC-MALS methods speak only of 'TSEN15–34 complex'; also called minimal TSEN15–34 complex; source: Sf21 insect cells (baculovirus), co-expressed, purified (Ni-NTA, TEV, SEC); not shown: His10, N-terminal, cleaved
How did the “stoichiometry N” value [3] turn out when B1 was run?
Its value is 2.

B2: RNA kinase CLP1 (enzyme, human, UniProt Q92989 1-425, looked up)
chain: MGEEANDDKKPTTKFELERETELRFEVEASQSVQLELLTGMAEIFGTELTRNKKFTFDAGAKVAVFTWHGCSVQLSGRTEVAYVSKDTPMLLYLNTHTALEQMRRQAEKEEERGPRVMVVGPTDVGKSTVCRLLLNYAVRLGRRPTYVELDVGQGSVSIPGTMGALYIERPADVEEGFSIQAPLVYHFGSTTPGTNIKLYNKITSRLADVFNQRCEVNRRASVSGCVINTCGWVKGSGYQALVHAASAFEVDVVVVLDQERLYNELKRDLPHFVRTVLLPKSGGVVERSKDFRRECRDERIREYFYGFRGCFYPHAFNVKFSDVKIYKVGAPTIPDSCLPLGMSQEDNQLKLVPVTPGRDMVHHLLSVSTAEGTEENLSETSVAGFIVVTSVDLEHQVFTVLSPAPRPLPKNFLLIMDIRFMDLK
notes: human CLP1, open reading frame, UniProtKB Q92989; source: Sf21 insect cells (baculovirus), co-expressed with the four TSEN subunits, purified (Ni-NTA, heparin, TEV, SEC); not shown: His6, N-terminal, cleaved
How did the “stoichiometry N” value [4] turn out when B2 was run?
The value was 1 and 2.
